Laboratory results taken from paper PMC11752098.

B1: wild-type GABRA2 (α2 subunit of the γ-aminobutyric acid A receptor), FLAG-tagged [human] / GABRB3 (β3 subunit of the GABA-A receptor) [human (endogenous in 293T)] (parent)
chain 1: NIQEDEAKNNITIFTRILDRLLDGYDNRLRPGLGDSITEVFTNIYVTSFGPVSDTDMEYTIDVFFRQKWKDERLKFKGPMNILRLNNLMASKIWTPDTFFHNGKKSVAHNMTMPNKLLRIQDDGTLLYTMRLTVQAECPMHLEDFPMDAHSCPLKFGSYAYTTSEVTYIWTYNASDSVQVAPDGSRLNQYDLLGQSIGKETIKSSTGEYTVMTAHFHLKRKIGYFVIQTYLPCIMTVILSQVSFWLNRESVPARTVFGVTTVLTMTTLSISARNSLPKVAYATAMDWFIAVCYAFVFSALIEFATVNYFTKRGWAWDGKSVVNDKKKEKASVMIQNNAYAVAVANYAPNLSKDPVLSTISKSATTPEPNKKPENKPAEAKKTFNSVSKIDRMSRIVFPVLFGTFNLVYWATYLNREPVLGVSP
chain 2: QSVNDPGNMSFVKETVDKLLKGYDIRLRPDFGGPPVCVGMNIDIASIDMVSEVNMDYTLTMYFQQYWRDKRLAYSGIPLNLTLDNRVADQLWVPDTYFLNDKKSFVHGVTVKNRMIRLHPDGTVLYGLRITTTAACMMDLRRYPLDEQNCTLEIESYGYTTDDIEFYWRGGDKAVTGVERIELPQFSIVEHRLVSRNVVFATGAYPRLSLSFRLKRNIGYFILQTYMPSILITILSWVSFWINYDASAARVALGITTVLTMTTINTHLRETLPKIPYVKAIDMYLMGCFVFVFLALLEYAFVNYIFFGRGPQRQKKLAEKTAKAKNDRSKSESNRVDAHGNILLTSLEVHNEMNEVSGGIGDTRNSAISFDNSGIQYRKQSMPREGHGRFLGDRSLPHKKTHLRRRSSQLKIKIPDLTDVNAIDRWSRIVFPFTFSLFNLVYWLYYVN
B2: wild-type GABRA2 (α2 subunit of the γ-aminobutyric acid A receptor), FLAG-tagged [human] / GABRG2 (γ2 subunit of the GABA-A receptor) [human (endogenous in 293T)] (parent)
chain 1: B1 chain 1
chain 2: QKSDDDYEDYASNKTWVLTPKVPEGDVTVILNNLLEGYDNKLRPDIGVKPTLIHTDMYVNSIGPVNAINMEYTIDIFFAQTWYDRRLKFNSTIKVLRLNSNMVGKIWIPDTFFRNSKKADAHWITTPNRMLRIWNDGRVLYTLRLTIDAECQLQLHNFPMDEHSCPLEFSSYGYPREEIVYQWKRSSVEVGDTRSWRLYQFSFVGLRNTTEVVKTTSGDYVVMSVYFDLSRRMGYFTIQTYIPCTLIVVLSWVSFWINKDAVPARTSLGITTVLTMTTLSTIARKSLPKVSYVTAMDLFVSVCFIFVFSALVEYGTLHYFVSNRKPSKDKDKKKKNPLLRMFSFKAPTIDIRPRSATIQMNNATHLQERDEEYGYECLDGKDCASFFCCFEDCRTGAWRHGRIHIRIAKMDSYARIFFPTAFCLFNLVYWVSYLYL

Variants of: B1
Assay: co-immunoprecipitation (anti-FLAG beads) with Western blot quantification
Conditions: with GABRB3 (β3 subunit of the GABA-A receptor) [human (endogenous in 293T)]; 293T cells transfected with FLAG-tagged GABRA2-WT or GABRA2-MUT; parent: 1; read off a plot

ratio to parent | Variant
0.87 | chain 1 A280V

Variants of: B2
Assay: as above
Conditions: with GABRG2 (γ2 subunit of the GABA-A receptor) [human (endogenous in 293T)]; 293T cells transfected with FLAG-tagged GABRA2-WT or GABRA2-MUT; parent: 1; read off a plot

ratio to parent | Variant
0.88 | chain 1 A280V
